Measurements taken from patent publication US20220380459A1 (DRAGONFLY THERAPEUTICS, published 2022).

biological target: T1, human CD33 extracellular domain (human, UniProt P20138 18-259); assay: BLI Octet, IgG loaded;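 note: IgGs captured on AHC biosensors, exposed to 100 nM antigen for 3 min association then 3 min dissociation in buffer, kinetics fitted with a 1:1 binding model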
T1 construct: soluble monomeric ECD; also called human CD33 ECD; hCD33
Method: Briefly, ForteBio affinity measurements were performed by loading IgGs on-line onto AHC sensors. Sensors were equilibrated off-line in assay buffer for 30 min and then monitored on-line for 60 seconds for baseline establishment. Sensors with loaded IgGs were exposed to 100 nM antigen for 3 minutes, and afterwards were transferred to assay buffer for 3 min for off-rate measurement. All kinetics were analyzed using the 1:1 binding model.

Kd	koff	kon	Binder
0.307 nM	0.0002 s⁻¹	651000 M⁻¹ s⁻¹	ADI-11807 IgG (antibody, V domains shown, IgG; also called Ab5; I07) VH: EVQLVESGGGLVQPGGSLRLSCAASGFTFGSYWMSWVRQAPGKGLEWVATIKQDGSEKSYVDSVKGRFTISRDNAKNSLYLQMNSLRAEDTAVYYCARPLNAGELDVWGQGTMVTVSS VL: DIQMTQSPSTLSASVGDRVTITCRASQSISSWLAWYQQKPGKAPKLLIYEASSLESGVPSRFSGSGSGTEFTLTISSLQPDDFATYYCQQSQSYPPITFGGGTKVEIK
0.313 nM	0.0002 s⁻¹	638000 M⁻¹ s⁻¹	ADI-11809 IgG (antibody, V domains shown, IgG; also called Ab6) VH: EVQLVESGGGLVQPGGSLRLSCAASGFTFPSYWMSWVRQAPGKGLEWVATIKRDGSEKGYVDSVKGRFTISRDNAKNSLYLQMNSLRAEDTAVYYCARPLNAGELDVWGQGTMVTVSS VL: DIQMTQSPSTLSASVGDRVTITCRASQSISSWLAWYQQKPGKAPKLLIYEASSLESGVPSRFSGSGSGTEFTLTISSLQPDDFATYYCQQSQSYPPITFGGGTKVEIK
0.281 nM	0.000237 s⁻¹	844000 M⁻¹ s⁻¹	ADI-11835 IgG (antibody, V domains shown, IgG; also called Ab10; I35) VH: QLQLQESGPGLVKPSETLSLTCTVSGGSISSTDYYWGWIRQPPGKGLEWIGSIGYSGTYYNPSLKSRVTISVDTSKNQFSLKLSSVTAADTAVYYCARETAHDVHGMDVWGQGTTVTVSS VL: EIVLTQSPATLSLSPGERATLSCRASHSVYSYLAWYQQKPGQAPRLLIYDASNRATGIPARFSGSGSGTDFTLTISSLEPEDFAVYYCQQYDNLPTFGGGTKVEIK
1.91 nM	0.000315 s⁻¹	166000 M⁻¹ s⁻¹	ADI-11812 IgG (antibody, V domains shown, IgG; also called Ab24) VH: QVQLVQSGAEVKKPGASVKVSCKASGYTFEIYYMHWVRQAPGQGLEWMGIINPSSGSTVYAQKFQGRVTMTRDTSTSTVYMELSSLRSEDTAVYYCARGAGYDDEDMDVWGKGTTVTVSS VL: DIQMTQSPSSVSASVGDRVTITCRASQGIDSWLAWYQQKPGKAPKLLIYAASSLQSGVPSRFSGSGSGTDFTLTISSLQPEDFATYYCQQAHSYPLTFGGGTKVEIK
3.7 nM	0.00217 s⁻¹	587000 M⁻¹ s⁻¹	ADI-10161 IgG (antibody, V domains shown, IgG; also called Ab16) VH: EVQLVESGGGLVQPGGSLRLSCAASGFTFSSYWMSWVRQAPGKGLEWVANINQDGSEKYYVDSVKGRFTISRDNAKNSLYLQMNSLRAEDTAVYYCAREGGDSWYHAFDIWGQGTMVTVSS VL: DIQMTQSPSSVSASVGDRVTITCRASQGISSWLAWYQQKPGKAPKLLIYAASNLQSGVPSRFSGSGSGTDFTLTISSLQPEDFATYYCQQKLSLPLTFGGGTKVEIK
3.6 nM	0.00214 s⁻¹	601000 M⁻¹ s⁻¹	ADI-10177 IgG (antibody, V domains shown, IgG; also called Ab2) VH: EVQLVESGGGLVQPGGSLRLSCAASGFTFSSYWMSWVRQAPGKGLEWVANIKQDGSEKYYVDSVKGRFTISRDNAKNSLYLQMNSLRAEDTAVYYCARPLNAGELDVWGQGTMVTVSS VL: DIQMTQSPSTLSASVGDRVTITCRASQSISSWLAWYQQKPGKAPKLLIYEASSLESGVPSRFSGSGSGTEFTLTISSLQPDDFATYYCQQLESYPLTFGGGTKVEIK
1.44 nM	0.000229 s⁻¹	159000 M⁻¹ s⁻¹	ADI-11815 IgG (antibody, V domains shown, IgG; also called Ab7) VH: QVQLVQSGAEVKKPGASVKVSCKASGYTFGTYYMHWVRQAPGQGLEWMGIINPSRGSTVYAQKFQGRVTMTRDTSTSTVYMELSSLRSEDTAVYYCARGAGYDDEDMDVWGKGTTVTVSS VL: DIQMTQSPSSVSASVGDRVTITCRASQGIDSWLAWYQQKPGKAPKLLIYAASSLQSGVPSRFSGSGSGTDFTLTISSLQPEDFATYYCQQAHSYPLTFGGGTKVEIK
0.81 nM	0.000533 s⁻¹	658000 M⁻¹ s⁻¹	ADI-11828 IgG (antibody, V domains shown, IgG; also called Ab27) VH: EVQLVESGGGLVQPGGSLRLSCAASGFTFSSYWMSWVRQAPGKGLEWVANINQDGSEVYYVDSVKGRFTISRDNAKNSLYLQMNSLRAEDTAVYYCARDVGPGIAYQGHFDYWGQGTLVTVSS VL: DIQMTQSPSSLSASVGDRVTITCRASQSIYYYLNWYQQKPGKAPKLLIYAASSRQSGVPSRFSGSGSGTDFTLTISSLQPEDFATYYCQQVYDTPLTFGGGTKVEIK
6.8 nM	–	–	ADI-10163 IgG (antibody, V domains shown, IgG; also called Ab17) VH: QVQLQESGPGLVKPSQTLSLTCTVSGGSISSGGYYWSWIRQHPGKGLEWIGSIYYSGSTYYNPSLKSRVTISVDTSKNQFSLKLSSVTAADTAVYYCARDRLDYSYNYGMDVWGQGTTVTVSS VL: DIQMTQSPSSLSASVGDRVTITCRASQSISSYLNWYQQKPGKAPKLLIYGASSLQSGVPSRFSGSGSGTDFTLTISSLQPEDFATYYCQQVYSAPFTFGGGTKVEIK
0.393 nM	0.000243 s⁻¹	619000 M⁻¹ s⁻¹	ADI-11826 IgG (antibody, V domains shown, IgG; also called Ab26) VH: EVQLVESGGGLVQPGGSLRLSCAASGFTFPGYWMSWVRQAPGKGLEWVANINQDGSEVYYVDSVKGRFTISRDNAKNSLYLQMNSLRAEDTAVYYCAREANYYGNVGDDYWGQGTLVTVSS VL: DIQMTQSPSSLSASVGDRVTITCRASQSIYNYLNWYQQKPGKAPKLLIYAASSTQSGVPSRFSGSGSGTDFTLTISSLQPEDFATYYCQQAFHVPITFGGGTKVEIK
5.1 nM	0.00325 s⁻¹	638000 M⁻¹ s⁻¹	ADI-10160 IgG (antibody, V domains shown, IgG; also called Ab15) VH: EVQLVESGGGLVQPGGSLRLSCAASGFTFSSYWMSWVRQAPGKGLEWVANINQDGSEKYYVDSVKGRFTISRDNAKNSLYLQMNSLRAEDTAVYYCAREANYYGNVGDDYWGQGTLVTVSS VL: not shown
1.2 nM	0.000923 s⁻¹	770000 M⁻¹ s⁻¹	ADI-11830 IgG (antibody, V domains shown, IgG; also called Ab9) VH: EVQLVESGGGLVQPGGSLRLSCAASGFTFSSYWMSWVRQAPGKGLEWVANINTDGSEVYYVDSVKGRFTISRDNAKNSLYLQMNSLRAEDTAVYYCARDVGPGIAYQGHFDYWGQGTLVTVSS VL: DIQMTQSPSSLSASVGDRVTITCRASQVIYSYLNWYQQKPGKAPKLLIYAASSLKSGVPSRFSGSGSGTDFTLTISSLQPEDFATYYCQQVYDTPLTFGGGTKVEIK
0.54 nM	0.000376 s⁻¹	696000 M⁻¹ s⁻¹	ADI-11825 IgG (antibody, V domains shown, IgG; also called Ab25) VH: EVQLVESGGGLVQPGGSLRLSCAASGFTFGGYWMSWVRQAPGKGLEWVANINQDGSEEYYVDSVKGRFTISRDNAKNSLYLQMNSLRAEDTAVYYCAREANYYGNVGDDYWGQGTLVTVSS VL: DIQMTQSPSSLSASVGDRVTITCRASQSIYNYLNWYQQKPGKAPKLLIYAASNLHSGVPSRFSGSGSGTDFTLTISSLQPEDFATYYCQQAFHVPITFGGGTKVEIK
4.2 nM	0.000336 s⁻¹	79900 M⁻¹ s⁻¹	ADI-10157 IgG (antibody, V domains shown, IgG; also called Ab13) VH: QVQLQESGPGLVKPSETLSLTCTVSGGSISSYYWSWIRQPPGKGLEWIGSIYYSGSTNYNPSLKSRVTISVDTSKNQFSLKLSSVTAADTAVYYCARVGGVYSTIETYGMDVWGQGTTVTVSS VL: EIVMTQSPATLSVSPGERATLSCRASQSVSSNLAWYQQKPGQAPRLLIYGASTRATGIPARFSGSGSGTEFTLTISSLQSEDFAVYYCQQYTVYPPTFGGGTKVEIK
4.3 nM	0.00148 s⁻¹	344000 M⁻¹ s⁻¹	ADI-10164 IgG (antibody, V domains shown, IgG; also called Ab18) VH: QVQLQESGPGLVKPSETLSLTCAVSGYSISSGYYWGWIRQPPGKGLEWIGSIYHSGSTNYNPSLKSRVTISVDTSKNQFSLKLSSVTAADTAVYYCARLPPWFGFSYFDLWGRGTLVTVSS VL: EIVLTQSPATLSLSPGERATLSCRASQSVSSYLAWYQQKPGQAPRLLIYDASNRATGIPARFSGSGSGTDFTLTISSLEPEDFAVYYCQQVDNYPPTFGGGTKVEIK
0.457 nM	0.0002 s⁻¹	438000 M⁻¹ s⁻¹	ADI-11801 IgG (antibody, V domains shown, IgG; also called Ab4) VH: QVQLVQSGAEVKKPGASVKVSCKASGYTFSDYYMHWVRQAPGQGLEWMGMINPSWGSTSYAQKFQGRVTMTRDTSTSTVYMELSSLRSEDTAVYYCAREAADGFVGERYFDLWGRGTLVTVSS VL: not shown
0.453 nM	0.0002 s⁻¹	441000 M⁻¹ s⁻¹	ADI-11802 IgG (antibody, V domains shown, IgG; also called Ab23) VH: QVQLVQSGAEVKKPGASVKVSCKASGYTFSGYYMHWVRQAPGQGLEWMGMINPYGGSTRYAQKFQGRVTMTRDTSTSTVYMELSSLRSEDTAVYYCAREAADGFVGERYFDLWGRGTLVTVSS VL: not shown
9.7 nM	–	–	ADI-10173 IgG (antibody, V domains shown, IgG; also called Ab22) VH: QVQLVQSGAEVKKPGASVKVSCKASGYTFTSYYMHWVRQAPGQGLEWMGIINPSGGSTTYAQKFQGRVTMTRDTSTSTVYMELSSLRSEDTAVYYCAREAADGFVGERYFDLWGRGTLVTVSS VL: not shown
≤ 0.575 nM	≤ 0.0002 s⁻¹	348000 M⁻¹ s⁻¹	ADI-10159 IgG (antibody, V domains shown, IgG; also called Ab1; G59) VH: EVQLVESGGGLVQPGGSLRLSCAASGFTFSSYGMSWVRQAPGKGLEWVANIKQDGSEKYYVDSVKGRFTISRDNAKNSLYLQMNSLRAEDTAVYYCAREGGPYYDSSGYFVYYGMDVWGQGTTVTVSS VL: DIQMTQSPSTLSASVGDRVTITCRASQSISSWLAWYQQKPGKAPKLLIYDASSLESGVPSRFSGSGSGTEFTLTISSLQPDDFATYYCQQYESFPTFGGGTKVEIK
0.294 nM	0.0002 s⁻¹	679000 M⁻¹ s⁻¹	ADI-11776 IgG (antibody, V domains shown, IgG; also called Ab3; H76) VH: EVQLLESGGGLVQPGGSLRLSCAASGFTFSKYTMSWVRQAPGKGLEWVSAIVGSGESTYFADSVKGRFTISRDNSKNTLYLQMNSLRAEDTAVYYCAREGGPYYDSSGYFVYYGMDVWGQGTTVTVSS VL: DIQMTQSPSTLSASVGDRVTITCRASQSISSWLAWYQQKPGKAPKLLIYKASSLESGVPSRFSGSGSGTEFTLTISSLQPDDFATYYCQQYDDLPTFGGGTKVEIK
0.243 nM	0.0002 s⁻¹	824000 M⁻¹ s⁻¹	ADI-11819 IgG (antibody, V domains shown, IgG; also called Ab8) VH: EVQLVESGGGLVKPGGSLRLSCAASGFTFSSYAMSWVRQAPGKGLEWVSSISSSSEGIYYADSVKGRFTISRDNAKNSLYLQMNSLRAEDTAVYYCAREGGPYYDSSGYFVYYGMDVWGQGTTVTVSS VL: DIQMTQSPSTLSASVGDRVTITCRASNSISSWLAWYQQKPGKAPKLLIYEASSTKSGVPSRFSGSGSGTEFTLTISSLQPDDFATYYCQQYDDLPTFGGGTKVEIK
